Assay results taken from patent US20180280504A1, “GLYCAN-INTERACTING COMPOUNDS AND METHODS OF USE” (SIAMAB THERAPEUTICS, INC., priority 2014, published 2018).

What was measured:
[1] = tested on: MDA-MB-231 parental cells (MDA-STn−); assay: Flow cytometry-based analysis of antibody binding, parental cells; parameters: species or system human
Method: Flow cytometry-based analysis is carried out to elucidate the curve-dose response for binding of antibodies to cell surface antigens. For these analyses, three cell lines are employed.
MDA-MB-231 cells are human breast cancer cells. They are grown in Earle's Minimum Essential Medium supplemented with 10% fetal calf serum (FCS), 100 μg/ml penicillin, 100 UI/ml streptomycin and 45 μg/ml gentamycin. MCF-7 cells are also human breast cancer cells and are grown under the same conditions as MDA-MB-231 cells. Stably transfected versions of MDA-MB-231 and MCF-7 cells (clone TAH3.P10 for MDA-MB-231 cells and clone A12.1 for MCF-7 cells) that over express GalNAc α2,6-sialyltransferase (ST6GalNAc 1,) are also cultured under the same conditions with the exception of an added 1 mg/ml of G418 to support cells expressing the transgene. ST6GalNAc 1 is an enzme capable of sialylating GalNAc. […]
For analysis, cells are harvested using StemPro Accutase (Life Technologies, Carlsbad, Calif.) and washed with PBS comprising 5% FBS before pelleting by light centrifugation. Cell numbers and viability are determined by trypan blue dye exclusion analysis and cell concentrations are adjusted to 5×10^6 cells/ml in PBS with 5% FBS. […] Cells are combined with 50 μl solutions of antibody being analyzed or control antibodies and incubated for 1 hour at 4° C. […]

E3-STn tumors = assay: E3-STn murine breast tumor allograft model, tumor volume; format: in vivo, mouse; conditions: for Average Tumor Volume (mm^3): 7G9-1A8 25 mg/kg i.p. twice weekly for 3 weeks, Paclitaxel daily for 5 days
Method: 3 test articles were evaluated during the study.
Standard deviation values are listed in parenthesis.

MDA-MD-231 STn− cells = assay: Fluorescence microscopy of ALEXA FLUOR 488-S3F binding and internalization, STn− cells; format: cell-based, human
Method: To analyze the internalization of antibodies by fluorescence microscopy, the following procedure was carried out. MDA-MD-231 STn− cells and MDA-MD-231 STn+ cells were cultured in Eagles minimum essential medium containing 10% fetal calf serum, 100 μg/ml penicillin, 100 UI/ml streptomycin, 45 μg/ml gentamycin, as well as 1 mg/ml G418 for STn+ cells. Cells were sub-cultured by treatment with Accutase buffer and seeded in microscope chamber slides at 10,000 cells/chamber in the case of STn− cells and 20,000 cells/chamber in the case of STn+ cells. All cells were cultured overnight at 37° C. Cells were subsequently incubated with either 1.5, 5 or 10 μg/ml S3F conjugated with ALEXA FLUOR® 488 dye (Thermo Fisher Scientific, Pittsburgh, Pa.) in complete media at 4° C. for 1 hour. Cells were then washed with ice-cold PBS in order to remove antibodies that were not bound to the cell surface. Complete media was then administered to each chamber and the cells were incubated at 37° C. for either 0, 15, 30 or 60 minutes in order to allow internalization of any surface-bound antibodies.
Following each time point, cells were washed twice with PBS in order to remove unbound antibodies. […] Cells were visualized the following day by analysis on a Nikon Eclipse Ti fluorescence microscope.

[2] = tested on: COLO-205 Human Colon Adenocarcinoma Tumor Xenograft; assay: COLO-205 xenograft model, clinical observations; format: in vivo, mouse; conditions: 5 mg/kg i.p. once weekly
Method: Animals were inoculated in the subcutaneous right flank with 5×10^6 colon adenocarcinoma tumor cells (COLO-205) in matrigel, mean tumor size was 175-225 mm^3 at study initiation. Animals were given either vehicle or one of the antibody drug conjugates (5 mg/kg) by intraperitoneal injection once weekly. Tumor volume and percent body weight change were determined once weekly until study termination. The study was terminated when the tumor in the vehicle control animal reached a mean tumor weight >1500 mm^3. SE refers to “standard error.”
Clinical observations of tumor shape, size and disposition were noted throughout the study.

B1: 8C11: anti-STn mouse monoclonal, IgG2b κ, from mouse #4407; VH SEQ ID NO: 8, VL SEQ ID NO: 9 (antibody, V domains shown)
VH: QVQLKESGPGLVAPSQSLSITCTVSGFSLTSYGVSWVRQPPGKGLEWLGVIWGDGSTNYHSALISRLIISKDNSKSQVFLKLNSLQTDDTATYYCTKGFTYWGQGTLVTVSA
VL: QIVLTQSPAIMSASPGEKVTMTCSASSSVSYMHWYQQKSGTSPKRWIFDTSKLASGVPARFSGSGSGTSYSLTISSMEAEDAATYYCQQWSSNLLTFGAGTKLELK
binding to MDA parental cells lacking STn [1]: No binding

B2: 7G9: anti-STn mouse monoclonal, IgG2b κ, from mouse #4407; VH SEQ ID NO: 12, VL SEQ ID NO: 9 (antibody, V domains shown)
VH: QVQLKESGPGLVAPSQNLSITCTVSGFSLTSYGVNWVRQPPGKGLEWLGVIWGDGSTNYHSALISRLIISKENSKSQVFLKLNSLQTNDTATYYCTKGFVYWGQGTLVTVSA
VL: QIVLTQSPAIMSASPGEKVTMTCSASSSVSYMHWYQQKSGTSPKRWIFDTSKLASGVPARFSGSGSGTSYSLTISSMEAEDAATYYCQQWSSNLLTFGAGTKLELK
average tumor volumes as compared to Paclitaxel and vehicle control (E3-STn tumors; 25 mg/kg i.p. twice weekly for 3 weeks): greatly reduced | Average Tumor Volume (mm^3) (E3-STn tumors; day 1): 112.4 mm^3 | Average Tumor Volume (mm^3) (E3-STn tumors; day 4): 148.7 mm^3 | Average Tumor Volume (mm^3) (E3-STn tumors; day 6): 161.9 mm^3 | Average Tumor Volume (mm^3) (E3-STn tumors; day 8): 152.8 mm^3 | Average Tumor Volume (mm^3) (E3-STn tumors; day 11): 136.3 mm^3 | Average Tumor Volume (mm^3) (E3-STn tumors; day 13): 118.4 mm^3 | Average Tumor Volume (mm^3) (E3-STn tumors; day 15): 105.1 mm^3 | Average Tumor Volume (mm^3) (E3-STn tumors; day 18): 99.5 mm^3 | Average Tumor Volume (mm^3) (E3-STn tumors; day 20): 91.7 mm^3 | Average Tumor Volume (mm^3) (E3-STn tumors; day 22): 105.2 mm^3 | Average Tumor Volume (mm^3) (E3-STn tumors; day 26): 102.8 mm^3 | Average Tumor Volume (mm^3) (E3-STn tumors; day 27): 107.4 mm^3 | Average Tumor Volume (mm^3) (E3-STn tumors; day 29): 147.1 mm^3 | Average Tumor Volume (mm^3) (E3-STn tumors; day 32): 160.6 mm^3 | Average Tumor Volume (mm^3) (E3-STn tumors; day 34): 164.7 mm^3 | Average Tumor Volume (mm^3) (E3-STn tumors; day 36): 212.1 mm^3 | Average Tumor Volume (mm^3) (E3-STn tumors; day 39): 206.6 mm^3 | Average Tumor Volume (mm^3) (E3-STn tumors; day 41): 235.3 mm^3

B3: S3F: 3F1 variable domains combined with IgG2a constant domains; heavy chain SEQ ID NO: 63, light chain SEQ ID NO: 64 (antibody)
heavy: QVQLQQSDAELVKPGASVKISCKASGYTFTDHAIHWVKQKPEQGLDWIGYISPGNGDIKYNEKFKDKVTLTADKSSSTACMHLNSLTSEDSAVYFCKRSLLALDYWGQGTTLTVSSAKTTAPSVYPLAPVCGDTTGSSVTLGCLVKGYFPEPVTLTWNSGSLSSGVHTFPAVLQSDLYTLSSSVTVTSSTWPSQSITCNVAHPASSTKVDKKIEPRGPTIKPCPPCKCPAPNLLGGPSVFIFPPKIKDVLMISLSPIVTCVVVDVSEDDPDVQISWFVNNVEVHTAQTQTHREDYNSTLRVVSALPIQHQDWMSGKEFKCKVNNKDLPAPIERTISKPKGSVRAPQVYVLPPPEEEMTKKQVTLTCMVTDFMPEDIYVEWTNNGKTELNYKNTEPVLDSDGSYFMYSKLRVEKKNWVERNSYSCSVVHEGLHNHHTTKSFSRTPGK
light: DIVMTQSHKFMSTSVGDRVSITCKASQDVGTNIAWYQQKPGRSPKVLIYSASTRHTGVPDRFTGSGSGTDFTLTISNVQSEDLTDYFCQQYSSFPLTFGVGTKLELKRADAAPTVSIFPPSSEQLTSGGASVVCFLNNFYPKDINVKWKIDGSERQNGVLNSWTDQDSKDSTYSMSSTLTLTKDEYERHNSYTCEATHKTSTSPIVKSFNRNEC
internalization by STn− cells (MDA-MD-231 STn− cells; 37° C. 15-60 min, acid wash): not efficiently internalized by STn− cells | binding to the surface of STn− cells (MDA-MD-231 STn− cells; 488-S3F conjugate at 1.5, 5, 10 μg/ml, 4° C.): does not bind the surface of STn− cells | clinical observations of tumors and signs of illness [2]: necrosing tumors ranging in severity from slight to severe
